Data reported in patent publication US11957748B2, “Vaccine to pathogenic immune activation cells during infections” (priority 2019, dated 2024).

Molecular target: T1, HLA-E (HLA-E*01033-transfected K562) (Homo sapiens, UniProt P13747)
T1 construct: expressed in transfected cells; host or cells: K562 (K562/HLA-E, kept under G-418 selection)
Assay: Peptide-HLA molecule binding assay (HLA-E stabilization)
Settings: HLA-E Transfected K562 pulsed overnight at 26° C.
Procedure: Peptide binding was assessed by HLA-E stabilization assays using HLA-E*01033-transfected derivative of K562 (K562/HLA-E) cell lines. Briefly, cells were re-suspended in serum-free medium at 1×10^6 cells/ml. Where appropriate, a peptide (see Table 1) was added. After overnight incubation at 26° C., cells were washed with PBS to remove free peptides. Next, HLA surface expression was monitored after staining with anti-HLA-E mAb. Analysis was done on a FACScalibur cytometer (BD Biosciences). Results are presented as the MFI of cells stained with anti-HLA-E mAb.

Row | Sequence | MFI (HLA-E surface expression, anti-HLA-E mAb)
1 | PEIVIYDYM (HIV-1 Pol derived peptide; MHCIb/E-binding antigen) | 7320
2 | RIRTWKSLV (HIV-1 Pol derived peptide; MHCIb/E-binding antigen) | 6580
3 | RMYSPVSIL (MHCIb/E-binding antigen) | 8240
4 | TALSEGATP (MHCIb/E-binding antigen) | 8530
5 | VMATRRNVL (MBt derived peptide) [reference compound] | 7523
